Measurements as given in patent US20020102260A1.

Molecular target: VEGFR-2
Assay: cell-based or functional assay

- activity towards the VEGFR-2 bioassay: 10 fold
Substance: VEGF-DΔN (from UniProt O43915 93-354) (ligand)
